T1: MICB-Fc (R&D Systems 1599-MB) (human, UniProt Q29980 23-298, limits assumed)
T1 construct: Bought; also called human MICB-Fc; not shown: Fc of the bought fusion protein
T1 sequence: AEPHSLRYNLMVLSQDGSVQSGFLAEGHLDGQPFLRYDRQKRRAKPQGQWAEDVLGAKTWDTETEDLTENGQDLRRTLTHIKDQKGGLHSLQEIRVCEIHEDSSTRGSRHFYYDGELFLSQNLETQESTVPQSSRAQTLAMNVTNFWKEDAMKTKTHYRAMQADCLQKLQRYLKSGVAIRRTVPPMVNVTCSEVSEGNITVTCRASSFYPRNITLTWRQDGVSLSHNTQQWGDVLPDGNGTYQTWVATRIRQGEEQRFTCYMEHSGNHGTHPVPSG

T2: MICA*008 expressed at the cell surface (human, UniProt Q29983 24-297)
T2 construct: also called C1R-MICA*008; C1R-MICA*08
T2 chain: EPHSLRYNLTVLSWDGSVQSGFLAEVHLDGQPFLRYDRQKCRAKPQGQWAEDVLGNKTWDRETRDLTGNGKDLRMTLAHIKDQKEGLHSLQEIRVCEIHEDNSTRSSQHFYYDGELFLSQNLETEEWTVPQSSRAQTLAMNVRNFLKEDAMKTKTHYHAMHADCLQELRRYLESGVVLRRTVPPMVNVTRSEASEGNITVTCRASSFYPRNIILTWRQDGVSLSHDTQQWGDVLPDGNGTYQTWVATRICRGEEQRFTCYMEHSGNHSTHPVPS

T3: recombinant human MICA extracellular domain recombinant-Fc protein (MICA*019 allele, R&D Systems) (human, UniProt Q29983 24-297)
T3 construct: also called MICA*019-Fc; MICA-Fc; not shown: Fc of the bought fusion protein
T3 chain: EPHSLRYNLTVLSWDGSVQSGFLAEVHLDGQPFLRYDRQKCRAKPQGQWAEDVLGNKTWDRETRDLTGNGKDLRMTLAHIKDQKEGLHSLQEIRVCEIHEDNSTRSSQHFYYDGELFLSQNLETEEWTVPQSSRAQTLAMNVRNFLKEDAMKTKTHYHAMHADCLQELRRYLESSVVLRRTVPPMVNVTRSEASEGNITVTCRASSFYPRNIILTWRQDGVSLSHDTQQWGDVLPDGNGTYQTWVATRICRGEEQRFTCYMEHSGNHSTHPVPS

B1: CHG1-M-MIA-20C6 (antibody, V domains shown)
VH: QITLKESGPGILKPSQTLSLTCSFSGFSLSTSGMGVGWIRQPSGKGLEWLAHIWWDDDKYYNPSLKSQLTISKDTSRNQVFLRITSVDTADTATYYCARRTQGYFDYWGQGTTLTVSS
VL: DIVMTQSPATLSVTPGDRVSLSCRASQSISDYLHWYQQKSHESPRLLIKYASQSISGIPSRFSGSGSGSDFTLSINSVEPEDVGVYYCQNGHSFPWTFGGGTKLEIKR
notes: also called chimeric anti-MICA 20C6
B2: CHG1-M-MIA-16A8 (antibody, V domains shown)
VH: EVQLVESGGGLVKPGGSLKLSCAASGFTFSRYAMSWVRQTPEKRLEWVATIFSGGSYTYYPDSVKGRFTISRDNANNTLYLQMSSLKAEDTAMYFCARPNWERTFDYWGQGTTLTVSS
VL: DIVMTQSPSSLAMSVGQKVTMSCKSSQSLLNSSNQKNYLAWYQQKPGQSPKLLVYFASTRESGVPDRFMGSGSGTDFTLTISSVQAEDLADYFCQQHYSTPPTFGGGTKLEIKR
notes: also called CHG1-M-MIA2-16A8; chimeric anti-MICA 16A8

How the values were obtained:
[1] = biological target: T1, MICB-Fc (R&D Systems 1599-MB); experiment: SPR, antibody injected over immobilized MICB-Fc
Method: For cross-binding study, the human ULBP-1-Fc (R&D systems*), MICB-Fc (*), ULBP-2-Fc (*) and ULBP-3-Fc (*) recombinant proteins were covalently immobilized respectively on the flow cell one to four of a CM5 sensorchip. Anti-MICA antibodies (at a constant concentration of 10 μg/ml) were injected for 2 minutes at a flow rate of 10 μl/min onto the four flow cells in parallel. After each cycle, Sensorchip was regenerated by a five second injection of appropriate regeneration buffer.

[2] = biological target: T2, MICA*008 expressed at the cell surface; experiment: flow cytometry on C1R transfectant cells, 4-parameter logistic fit
[3] = biological target: T3, recombinant human MICA extracellular …; experiment: SPR solution competition experiment (MICA*019-Fc pre-incubated with antibody, NKG2D-Fc chip)
Method: SPR measurements were performed on a Biacore T100 apparatus (Biacore GE Healthcare) at 25° C. In all Biacore experiments HBS-EP+ buffer (Biacore GE Healthcare) served as running buffer, 10 mM NaOH, 500 mM NaCl served as regeneration buffer and sensorgrams were analyzed with Biaevaluation 4.1 and Biacore T100 Evaluation software.
For solution competition experiments, the human NKG2D-Fc (R&D systems) recombinant proteins were covalently immobilized onto a CM5 sensorchip. Soluble human MICA*01-BirA or human MICA*019-Fc (R&D systems) recombinant proteins at a constant concentration of 10 μg/ml were pre-incubated with a 5 to 10 molar equivalent excess of antibodies and injected for 2 minutes at a flow rate of 10 μl/min onto the NKG2D-Fc chip. After each cycle, Sensorchips were regenerated by a five second injection of appropriate regeneration buffer.

Binder | binding result [1] | EC50 [2] | binding result [3]
B1 | no binding (tested: 10 µg/ml) | 0.13 mg/L | 
B2 |  |  | no binding

Source: patent publication US20200299380A1 (published 2020)
